Values of other authors in patent publication US20140295424.

Tested on: IgE (human myeloma IgE) (Homo sapiens)
Details: CITED; KD stated for purchased aptamer D17.4, no measurement described; cited from earlier work

For “GCCTGTTGTGAGCCTCCTGTCGAAGCACGTTTATCCGTCCCTCCTAGTGGCGTGCTTGAGCGTTTATTCTTGTCTCCC [IgE aptamer D17.4]”, the Kd is listed as 10 nM.
